Values quoted from earlier work as cited in article PMC10606834, “Is the Neuropeptide PEN a Ligand of GPR83?” (International Journal of Molecular Sciences, 2023).

How the values were obtained:
[1] = test system: GPR83 (murine Att20 and STC-1 cells); details: pilot screen of peptide hormone library, ref [14]
Description: While the earlier study employed CHO cells from Cricetulus griseus and Neuro2A cells from Mus musculus overexpressing human GPR83 [10], this study used human HEK293 and U2OS c ...

GPR83 = test system: GPR83
Description: G protein-coupled receptor 83 (GPR83), also termed glucocorticoid-induced receptor (GIR), GPR72, KIAA1540, or JP05, is a class A G protein-coupled receptor with predominant expression in the […] and proposed function in the regulation of food intake and in anxiety-like behavior [1, 2, 3]. […] A potential role of GPR83 in regulatory T cell development and function has not been confirmed. […] The present study was initiated to evaluate PEN as a ligand of GPR83. […] While one end of the peptide may be crucial for binding the receptor, an absolute requirement of both peptide termini to be free of another ...

B1: FAM237A: 9 kDa protein, termed family with sequence similarity 237 member A (protein, UniProt A0A1B0GTK4 34-181, looked up)
Protein FAM237A: HSQTDLLALSQADPQCWESSSVLLLEMWKPRVSNTVSGFWDFMIYLKSSENLKHGALFWDLAQLFWDIYVDCVLSRNHGLGRRQLVGEEEKISAAQPQHTRSKQGTYSQLLRTSFLKKKELIEDLISMHVRRSGSSVIGKVNLEIKRK
In the case of B1, the “GPR83-mediated β-arrestin recruitment” value [1] is given as “activator of GPR83-mediated β-arrestin recruitment”, the “GPR83 ligand and agonist” value (GPR83; comparative evaluation, multiple assay systems, ref [16]) is given as “only FAM237A was confirmed as a GPR83 ligand and agonist” and the “interaction with GPR83” value (GPR83; multiple luminescence-based interaction and activation assays, ref [16]) is given as “confirmed the interaction of FAM237A”. The “activation of GPR83” value (GPR83; peptide hormone library screening study, ref [14]) was “activate GPR83”.
